Source: PMC5683647, “Comparison of histone-like HU protein DNA-binding properties and HU/IHF protein sequence alignment”

Experiments:
[1] = tested on: HU (Mycoplasma gallisepticum); experiment: EMSA; settings: 20 mM Tris-HCl pH 8.0, 7% glycerol, 40 mM NaCl (dsDNA length series, 200 nM DNA, gel 50 mM Tris-borate) or 150 mM NaCl (distorted structures, 10.5 nM DNA, gel …)
HU [2] = biological target: T1, HU (Neisseria gonorrhoeae, UniProt Q5F8J6 1-89); experiment: EMSA; settings: 20 mM Tris-HCl pH 8.0, 7% glycerol, 40 mM NaCl (dsDNA length series, 200 nM DNA, gel 50 mM Tris-borate) or 150 mM NaCl (distorted structures, 10.5 nM DNA, gel …)
T1 sequence: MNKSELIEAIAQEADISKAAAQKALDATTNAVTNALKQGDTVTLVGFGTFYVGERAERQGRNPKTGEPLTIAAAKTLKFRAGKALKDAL

[3] = tested on: HU (Spiroplasma melliferum); experiment: EMSA; settings: 20 mM Tris-HCl pH 8.0, 7% glycerol, 40 mM NaCl (dsDNA length series, 200 nM DNA, gel 50 mM Tris-borate) or 150 mM NaCl (distorted structures, 10.5 nM DNA, gel …)
[4] = biological target: T2, HU (Spiroplasma melliferum) (UniProt A0ABX5UAT3); experiment: EMSA; settings: 20 mM Tris-HCl pH 8.0, 150 mM NaCl, 7% glycerol; 15 min; labelled DNA 10.5 nM; gel in 100 mM Tris-borate; temperature not stated; low values mean tight binding
T2 sequence: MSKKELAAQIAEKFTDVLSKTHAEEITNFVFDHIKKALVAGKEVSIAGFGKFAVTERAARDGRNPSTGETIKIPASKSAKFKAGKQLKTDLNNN

[5] = biological target: T3, HU (Neisseria gonorrhoeae) (UniProt Q5F8J6); experiment: EMSA; settings: 20 mM Tris-HCl pH 8.0, 150 mM NaCl, 7% glycerol; 15 min; labelled DNA 10.5 nM; gel in 100 mM Tris-borate; temperature not stated; low values mean tight binding
T3 sequence: T1 sequence

[6] = biological target: T4, HU alpha (Escherichia coli) (UniProt P0ACF0); experiment: EMSA; settings: 20 mM Tris-HCl pH 8.0, 150 mM NaCl, 7% glycerol; 15 min; labelled DNA 10.5 nM; gel in 100 mM Tris-borate; temperature not stated; low values mean tight binding
T4 sequence: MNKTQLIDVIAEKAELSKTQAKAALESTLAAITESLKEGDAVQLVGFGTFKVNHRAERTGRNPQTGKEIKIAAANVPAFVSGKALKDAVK

[7] = biological target: T5, HU (Mycoplasma gallisepticum) (UniProt A0A0F6CKR5); experiment: EMSA; settings: 20 mM Tris-HCl pH 8.0, 150 mM NaCl, 7% glycerol; 15 min; labelled DNA 10.5 nM; gel in 100 mM Tris-borate; temperature not stated; low values mean tight binding
T5 sequence: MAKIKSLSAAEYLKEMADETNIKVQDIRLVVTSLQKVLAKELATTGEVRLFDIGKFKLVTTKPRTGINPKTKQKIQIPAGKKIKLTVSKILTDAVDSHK

HU alpha [8] = biological target: T6, HU alpha (Escherichia coli, UniProt P0ACF0 1-90); experiment: EMSA; 40 mM NaCl; 20 mM Tris-HCl pH 8.0, 7% glycerol, 40 mM NaCl (dsDNA length series, 200 nM DNA, gel 50 mM Tris-borate) or 150 mM NaCl (distorted structures, 10.5 nM DNA, gel 100 mM Tris-borate); 15 min, temperature not stated; settings: protein: recombinant; tags: N-terminal 6xHisTEV removed by TEV protease; chain copies: 2; label: 5'-HEX; blunt
HU [9] = biological target: T1, HU; experiment: EMSA; 40 mM NaCl; 4 complexes; 20 mM Tris-HCl pH 8.0, 7% glycerol, 40 mM NaCl (dsDNA length series, 200 nM DNA, gel 50 mM Tris-borate) or 150 mM NaCl (distorted structures, 10.5 nM DNA, gel 100 mM Tris-borate); 15 min, temperature not stated; settings: protein: recombinant; tags: N-terminal 6xHisTEV removed by TEV protease; chain copies: 2; label: 5'-HEX; blunt
HU [10] = biological target: T1, HU; experiment: EMSA; 40 mM NaCl; 2 complexes; 20 mM Tris-HCl pH 8.0, 7% glycerol, 40 mM NaCl (dsDNA length series, 200 nM DNA, gel 50 mM Tris-borate) or 150 mM NaCl (distorted structures, 10.5 nM DNA, gel 100 mM Tris-borate); 15 min, temperature not stated; settings: protein: recombinant; tags: N-terminal 6xHisTEV removed by TEV protease; chain copies: 2; label: 5'-HEX; blunt
HU alpha [11] = biological target: T6, HU alpha; experiment: EMSA; 40 mM NaCl; 3 complexes; 20 mM Tris-HCl pH 8.0, 7% glycerol, 40 mM NaCl (dsDNA length series, 200 nM DNA, gel 50 mM Tris-borate) or 150 mM NaCl (distorted structures, 10.5 nM DNA, gel 100 mM Tris-borate); 15 min, temperature not stated; settings: protein: recombinant; tags: N-terminal 6xHisTEV removed by TEV protease; chain copies: 2; label: 5'-HEX; blunt
HU [12] = biological target: T1, HU; experiment: as above; settings: protein: recombinant; tags: N-terminal 6xHisTEV removed by TEV protease; chain copies: 2; label: 5'-HEX; blunt
HU [13] = biological target: T1, HU; experiment: EMSA; 150 mM NaCl; 20 mM Tris-HCl pH 8.0, 7% glycerol, 40 mM NaCl (dsDNA length series, 200 nM DNA, gel 50 mM Tris-borate) or 150 mM NaCl (distorted structures, 10.5 nM DNA, gel 100 mM Tris-borate); 15 min, temperature not stated; settings: protein: recombinant; tags: N-terminal 6xHisTEV removed by TEV protease; chain copies: 2; label: 5'-HEX on strand 1; four-way junction 1:2 2:3 3:4 4:1
HU [14] = biological target: T7, HU (Spiroplasma melliferum, UniProt A0ABX5UAT3 1-94); experiment: EMSA; 20 mM Tris-HCl pH 8.0, 150 mM NaCl, 7% glycerol; 15 min; labelled DNA 10.5 nM; gel in 100 mM Tris-borate; temperature not stated; settings: protein: recombinant, tags: N-terminal 6xHisTEV removed by TEV protease, chain copies: 2, label: 5'-HEX on strand 1
T7 sequence: T2 sequence

HU [15] = biological target: T1, HU; experiment: as above; settings: protein: recombinant, tags: N-terminal 6xHisTEV removed by TEV protease, chain copies: 2, label: 5'-HEX on strand 1
HU alpha [16] = biological target: T6, HU alpha; experiment: as above; settings: protein: recombinant, tags: N-terminal 6xHisTEV removed by TEV protease, chain copies: 2, label: 5'-HEX on strand 1
HU [17] = biological target: HU (Mycoplasma gallisepticum, UniProt A0A0F6CKR5 1-99); experiment: as above; settings: protein: recombinant, tags: N-terminal 6xHisTEV removed by TEV protease, chain copies: 2, label: 5'-HEX on strand 1
[18] = four-way junction 1:2 2:3 3:4 4:1
[19] = duplex with 7 unpaired A in strand 2
[20] = duplex with 1 unpaired A in strand 2
[21] = duplex with 3 unpaired A in strand 2

## DNA invasion (inv)
[1]
  binding signal (fold affinity vs nicked DNA): 20
HU [2]
  binding signal (fold affinity vs nicked DNA): 5

## AGTCTAGAGTGCAGTTGAGTCCTTGCTACGACGGATCCCTTAGGTCAG / CTGACCTAAGGGATCCGTCGTAGCAAGGGGCTGATACCGGAAGCTTCT / AGAAGCTTCCGGTATCAGCCTGAGCGGTGGTTGAATTCCT / AGGAATTCAACCACCGCTCAACTCAACTGCACTCTAGACT [four-way junction (J)]
[1]
  binding signal (fold affinity vs nicked DNA): 10

## AGTCTAGAGTGCAGTTGAGTCCTTGCTACGACGGATCCCTTAGGTCAG / CTGACCTAAGGGATCCGTCGTAGCAAGAGACTCAACTGCACTCTAGACT [bulge A1]
[1]
  Kd: 132 nM
[3]
  Kd: 35 nM

## AGTCTAGAGTGCAGTTGAGTCCTTGCTACGACGGATCCCTTAGGTCAG (double strand) [D48 dsDNA (ds)]
[4]
  Kd: 117 nM
[5]
  Kd: 1100 nM
[6]
  Kd: 293 nM
[7]
  Kd: 440 nM

B1: D36 dsDNA (dsDNA)
DNA 1: AGTCTAGAGTGCAGTTGAGTCCTTGCTACGACGGAT
DNA 2: ATCCGTCGTAGCAAGGACTCAACTGCACTCTAGACT
HU alpha [8]
  binding result: binds
HU [9]
  binding result: binds

B2: D21 dsDNA (dsDNA)
DNA 1: AGTCTAGAGTGCAGTTGAGTC
DNA 2: GACTCAACTGCACTCTAGACT
HU alpha [8]
  binding result: binds
HU [10]
  binding result: binds

B3: D29 dsDNA (dsDNA)
DNA 1: AGTCTAGAGTGCAGTTGAGTCCTTGCTAC
DNA 2: GTAGCAAGGACTCAACTGCACTCTAGACT
HU alpha [11]
  binding result: binds

B4: D27 dsDNA (dsDNA)
DNA 1: AGTCTAGAGTGCAGTTGAGTCCTTGCT
DNA 2: AGCAAGGACTCAACTGCACTCTAGACT
HU [12]
  binding result: binds

B5: four-way junction (J) (structured_DNA)
DNA 1: AGTCTAGAGTGCAGTTGAGTCCTTGCTACGACGGATCCCTTAGGTCAG
DNA 2: CTGACCTAAGGGATCCGTCGTAGCAAGGGGCTGATACCGGAAGCTTCT
DNA 3: AGAAGCTTCCGGTATCAGCCTGAGCGGTGGTTGAATTCCT
DNA 4: AGGAATTCAACCACCGCTCAACTCAACTGCACTCTAGACT
HU [13]
  binding signal: 4 fold affinity vs nicked DNA
HU [14]; [18]
  Kd: 35 ± 8 nM
HU [15]; [18]
  Kd: 110 ± 25 nM
HU alpha [16]; [18]
  Kd: 44 ± 10 nM
HU [17]; [18]
  Kd: 26 ± 6 nM

B6: overhang (ov) (structured_DNA)
DNA 1: B5 DNA 1
DNA 2: ACTCAACTGCACTCTAGACT
HU [14]; 3' overhang 28 nt
  Kd: 45 ± 10 nM
HU [15]; 3' overhang 28 nt
  Kd: 120 ± 25 nM
HU alpha [16]; 3' overhang 28 nt
  Kd: 50 ± 15 nM
HU [17]; 3' overhang 28 nt
  Kd: 30 ± 8 nM

B7: bulge A7 (structured_DNA)
DNA 1: B5 DNA 1
DNA 2: CTGACCTAAGGGATCCGTCGTAGCAAGAAAAAAAGACTCAACTGCACTCTAGACT
HU [14]; [19]
  Kd: 12 ± 4 nM
HU [15]; [19]
  Kd: 220 ± 60 nM
HU alpha [16]; [19]
  Kd: 44 ± 10 nM
HU [17]; [19]
  Kd: 44 ± 12 nM

B8: bulge A1 (structured_DNA)
DNA 1: B5 DNA 1
DNA 2: CTGACCTAAGGGATCCGTCGTAGCAAGAGACTCAACTGCACTCTAGACT
HU [14]; [20]
  Kd: 35 ± 8 nM
HU [15]; [20]
  Kd: 440 ± 120 nM
HU alpha [16]; [20]
  Kd: 88 ± 20 nM
HU [17]; [20]
  Kd: 132 ± 30 nM

B9: bulge A3 (structured_DNA)
DNA 1: B5 DNA 1
DNA 2: CTGACCTAAGGGATCCGTCGTAGCAAGAAAGACTCAACTGCACTCTAGACT
HU [14]; [21]
  Kd: 35 ± 8 nM
HU [15]; [21]
  Kd: 440 ± 120 nM
HU alpha [16]; [21]
  Kd: 88 ± 20 nM
HU [17]; [21]
  Kd: 132 ± 30 nM

B10: nicked DNA (n) (structured_DNA)
DNA 1: B5 DNA 1
DNA 2: CTGACCTAAGGGATCCGTCGTAGCAAGG
DNA 3: ACTCAACTGCACTCTAGACT
HU [14]; nick 1:2 1:3
  Kd: 35 ± 8 nM
HU [15]; nick 1:2 1:3
  Kd: 440 ± 100 nM
HU alpha [16]; nick 1:2 1:3
  Kd: 88 ± 20 nM
HU [17]; nick 1:2 1:3
  Kd: 264 ± 70 nM
